From paper PMC6422423 (2019)
Where no end group is shown, it is not given here.

Target: gastrin-releasing peptide receptor (UniProt P30550 1-384)
Test: competition with 125I-GRP

Sequence of gastrin-releasing peptide receptor (P30550 whole entry): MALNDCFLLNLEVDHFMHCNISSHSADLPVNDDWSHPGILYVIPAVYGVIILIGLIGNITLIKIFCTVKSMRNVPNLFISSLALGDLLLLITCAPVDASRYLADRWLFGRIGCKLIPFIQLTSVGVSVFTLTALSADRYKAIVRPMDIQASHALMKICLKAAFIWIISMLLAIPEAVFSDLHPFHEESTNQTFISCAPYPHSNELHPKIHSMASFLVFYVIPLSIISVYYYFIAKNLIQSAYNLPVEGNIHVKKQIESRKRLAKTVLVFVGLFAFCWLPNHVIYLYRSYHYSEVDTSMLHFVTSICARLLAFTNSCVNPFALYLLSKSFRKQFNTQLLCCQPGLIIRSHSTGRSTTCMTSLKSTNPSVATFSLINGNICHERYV

IC50	Binder
0.2 nM	APLQPGGSPALTKIYPRGSHWAVGHLM (ends and bridges not checked) [gastrin-releasing peptide, unlabeled ligand peptide of the radioligand binding assays]
151 nM	YKIKVNPRGNLWATGHFM (ends and bridges not checked) [neuromedin B, unlabeled ligand peptide of the radioligand binding assays]
